Article PMC9482650, “Quantitative fragmentomics allow affinity mapping of interactomes” (Nature Communications, 2022)

T1: SYNJ2BP, P57105
T1 sequence (P57105 8-110, limits assumed, looked up): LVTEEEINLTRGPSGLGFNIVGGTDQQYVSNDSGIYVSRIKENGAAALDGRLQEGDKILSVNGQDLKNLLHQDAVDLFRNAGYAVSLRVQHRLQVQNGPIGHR

T2: TJP3_3, O95049
T2 sequence (O95049 375-456, limits assumed, looked up): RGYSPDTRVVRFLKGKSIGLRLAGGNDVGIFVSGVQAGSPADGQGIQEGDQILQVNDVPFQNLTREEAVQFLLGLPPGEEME

T3: MPP7, Q5T2T1
T3 sequence (Q5T2T1 134-230, limits assumed, looked up): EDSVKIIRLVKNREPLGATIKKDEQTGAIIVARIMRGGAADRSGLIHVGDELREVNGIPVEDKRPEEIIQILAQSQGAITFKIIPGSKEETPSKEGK

T4: GRIP1_7, Q9Y3R0
T4 sequence (Q9Y3R0 999-1096, limits assumed, looked up): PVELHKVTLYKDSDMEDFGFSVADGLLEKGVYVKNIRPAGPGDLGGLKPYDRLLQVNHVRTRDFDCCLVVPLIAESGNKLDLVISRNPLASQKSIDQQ

T5: APBA2_1, Q99767
T5 sequence (Q99767 563-664, limits assumed, looked up): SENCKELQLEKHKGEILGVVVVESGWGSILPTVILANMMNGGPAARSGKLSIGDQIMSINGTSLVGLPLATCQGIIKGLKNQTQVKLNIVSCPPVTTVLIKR

T6: GRIP1_2, Q9Y3R0
T6 sequence (Q9Y3R0 145-248, limits assumed, looked up): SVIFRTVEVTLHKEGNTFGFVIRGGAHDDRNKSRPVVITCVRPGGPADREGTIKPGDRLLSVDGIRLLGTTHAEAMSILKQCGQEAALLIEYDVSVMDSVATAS

T7: APBA1_1, Q02410
T7 sequence (Q02410 651-752, limits assumed, looked up): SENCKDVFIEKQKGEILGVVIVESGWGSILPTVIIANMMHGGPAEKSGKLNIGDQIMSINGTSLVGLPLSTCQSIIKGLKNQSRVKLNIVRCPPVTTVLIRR

T8: GRIP1_3, Q9Y3R0
T8 sequence (Q9Y3R0 247-346, limits assumed, looked up): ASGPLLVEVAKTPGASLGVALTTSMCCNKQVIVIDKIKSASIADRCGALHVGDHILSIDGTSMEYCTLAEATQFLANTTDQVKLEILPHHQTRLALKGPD

T9: GRIP1_5, Q9Y3R0
T9 sequence (Q9Y3R0 568-668, limits assumed, looked up): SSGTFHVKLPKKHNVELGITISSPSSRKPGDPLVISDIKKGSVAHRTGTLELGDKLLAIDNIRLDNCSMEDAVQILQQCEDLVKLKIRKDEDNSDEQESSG


What was measured:
Assay in all cases: holdup assay
Design in all cases: key: below the threshold = too weak to quantify, mostly under pKd 3.1 to 4
Details in all cases: plain residues with an end cap or a label only (N-terminal biotin on a linker: ado-ado)
SNX27, Q96L92 = target: SNX27, Q96L92
CASK, O14936 = target: CASK, O14936
Chain of CASK, O14936 (O14936 487-570): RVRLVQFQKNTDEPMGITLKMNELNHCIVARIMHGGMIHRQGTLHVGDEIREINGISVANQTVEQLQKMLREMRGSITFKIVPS

MAGI2_2, Q86UL8 = target: MAGI2_2, Q86UL8
Chain of MAGI2_2, Q86UL8 (Q86UL8 410-522): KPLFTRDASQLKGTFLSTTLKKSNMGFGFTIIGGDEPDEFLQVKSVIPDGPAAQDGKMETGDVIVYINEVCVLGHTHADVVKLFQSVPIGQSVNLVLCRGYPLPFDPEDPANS

GRIP2_6, Q9C0E4 = target: GRIP2_6, Q9C0E4
Chain of GRIP2_6, Q9C0E4 (Q9C0E4 648-740): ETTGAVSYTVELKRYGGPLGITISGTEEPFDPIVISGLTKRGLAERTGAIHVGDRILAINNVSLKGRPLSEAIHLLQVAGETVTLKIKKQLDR

SYNJ2BP, P57105 = target: T1, SYNJ2BP, P57105
TJP3_3, O95049 = target: T2, TJP3_3, O95049
FRMPD4, Q14CM0 = target: FRMPD4, Q14CM0
Chain of FRMPD4, Q14CM0 (Q14CM0 67-160): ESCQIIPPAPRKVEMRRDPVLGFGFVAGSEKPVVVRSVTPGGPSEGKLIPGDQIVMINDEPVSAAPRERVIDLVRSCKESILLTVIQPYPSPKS

LAP2, Q96RT1 = target: LAP2, Q96RT1
Chain of LAP2, Q96RT1 (Q96RT1 other isoform, or with tags, fused parts or gaps): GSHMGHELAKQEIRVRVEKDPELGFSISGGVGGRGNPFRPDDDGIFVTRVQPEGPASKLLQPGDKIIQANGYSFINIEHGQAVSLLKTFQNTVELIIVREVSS

MPP7, Q5T2T1 = target: T3, MPP7, Q5T2T1
SCRIB_2, Q14160 = target: SCRIB_2, Q14160
Chain of SCRIB_2, Q14160 (Q14160 857-960): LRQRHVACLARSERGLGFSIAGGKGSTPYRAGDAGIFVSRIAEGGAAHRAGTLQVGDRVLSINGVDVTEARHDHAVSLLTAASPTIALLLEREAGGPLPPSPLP

TJP2_1, Q9UDY2 = target: TJP2_1, Q9UDY2
Chain of TJP2_1, Q9UDY2 (Q9UDY2 24-128): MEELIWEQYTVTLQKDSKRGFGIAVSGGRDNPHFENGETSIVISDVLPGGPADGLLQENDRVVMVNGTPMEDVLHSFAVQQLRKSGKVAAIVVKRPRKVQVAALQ

GRIP1_7, Q9Y3R0 = target: T4, GRIP1_7, Q9Y3R0
HTRA2, O43464 = target: HTRA2, O43464
Chain of HTRA2, O43464 (O43464 355-458): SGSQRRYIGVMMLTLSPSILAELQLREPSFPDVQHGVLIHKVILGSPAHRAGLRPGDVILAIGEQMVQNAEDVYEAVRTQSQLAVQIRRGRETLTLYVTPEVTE

GORASP2, Q9H8Y8 = target: GORASP2, Q9H8Y8
APBA2_1, Q99767 = target: T5, APBA2_1, Q99767
GRIP1_2, Q9Y3R0 = target: T6, GRIP1_2, Q9Y3R0
PDZRN4_1, Q6ZMN7 = target: PDZRN4_1, Q6ZMN7
Chain of PDZRN4_1, Q6ZMN7 (Q6ZMN7 213-318): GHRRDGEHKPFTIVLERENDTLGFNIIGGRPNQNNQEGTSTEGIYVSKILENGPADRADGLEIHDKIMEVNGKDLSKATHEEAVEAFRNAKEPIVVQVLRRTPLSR

GRIP2_4, Q9C0E4 = target: GRIP2_4, Q9C0E4
Chain of GRIP2_4, Q9C0E4 (Q9C0E4 446-548): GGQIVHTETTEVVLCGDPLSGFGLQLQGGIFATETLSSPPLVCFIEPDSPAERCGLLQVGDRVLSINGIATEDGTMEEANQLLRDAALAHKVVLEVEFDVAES

GRIP2_5, Q9C0E4 = target: GRIP2_5, Q9C0E4
Chain of GRIP2_5, Q9C0E4 (Q9C0E4 544-642): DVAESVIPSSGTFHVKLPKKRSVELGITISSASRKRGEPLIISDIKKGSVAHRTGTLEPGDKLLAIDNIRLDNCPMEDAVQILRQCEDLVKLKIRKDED

GRID2IP_1, A4D2P6 = target: GRID2IP_1, A4D2P6
Chain of GRID2IP_1, A4D2P6 (A4D2P6 1-87): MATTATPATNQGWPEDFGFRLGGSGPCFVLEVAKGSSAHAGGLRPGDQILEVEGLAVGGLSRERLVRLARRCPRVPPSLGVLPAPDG

GRIP2_7, Q9C0E4 = target: GRIP2_7, Q9C0E4
Chain of GRIP2_7, Q9C0E4 (Q9C0E4 934-1023): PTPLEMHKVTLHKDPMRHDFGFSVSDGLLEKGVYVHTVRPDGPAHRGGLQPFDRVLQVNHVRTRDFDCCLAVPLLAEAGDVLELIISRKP

APBA1_1, Q02410 = target: T7, APBA1_1, Q02410
GRIP1_3, Q9Y3R0 = target: T8, GRIP1_3, Q9Y3R0
Inadl_2, Q8NI35 = target: Inadl_2, Q8NI35
Chain of Inadl_2, Q8NI35 (Q8NI35 238-335): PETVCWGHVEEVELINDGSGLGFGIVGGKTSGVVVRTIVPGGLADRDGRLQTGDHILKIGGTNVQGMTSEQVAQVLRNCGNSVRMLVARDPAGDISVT

MAGI2_4, Q86UL8 = target: MAGI2_4, Q86UL8
Chain of MAGI2_4, Q86UL8 (Q86UL8 772-865): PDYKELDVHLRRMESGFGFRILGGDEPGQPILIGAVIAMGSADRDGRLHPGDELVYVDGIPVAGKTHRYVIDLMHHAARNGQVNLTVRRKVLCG

SCRIB_1, Q14160 = target: SCRIB_1, Q14160
Chain of SCRIB_1, Q14160 (Q14160 718-814): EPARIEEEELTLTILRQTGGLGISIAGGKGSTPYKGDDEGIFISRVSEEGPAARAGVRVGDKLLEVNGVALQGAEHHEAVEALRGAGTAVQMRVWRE

GRIP1_5, Q9Y3R0 = target: T9, GRIP1_5, Q9Y3R0
DLG5_1, Q8TDM6 = target: DLG5_1, Q8TDM6
Chain of DLG5_1, Q8TDM6 (Q8TDM6 617-713): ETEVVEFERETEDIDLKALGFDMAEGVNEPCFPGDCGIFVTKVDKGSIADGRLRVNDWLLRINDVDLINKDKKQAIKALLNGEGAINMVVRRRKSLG

Binder	pKd (SNX27, Q96L92)	pKd (CASK, O14936)	pKd (MAGI2_2, Q86UL8)	pKd (GRIP2_6, Q9C0E4)	pKd (SYNJ2BP, P57105)	pKd (TJP3_3, O95049)	pKd (FRMPD4, Q14CM0)	pKd (LAP2, Q96RT1)	pKd (MPP7, Q5T2T1)	pKd (SCRIB_2, Q14160)	pKd (TJP2_1, Q9UDY2)	pKd (GRIP1_7, Q9Y3R0)	pKd (HTRA2, O43464)	pKd (GORASP2, Q9H8Y8)	pKd (APBA2_1, Q99767)	pKd (GRIP1_2, Q9Y3R0)	pKd (PDZRN4_1, Q6ZMN7)	pKd (GRIP2_4, Q9C0E4)	pKd (GRIP2_5, Q9C0E4)	pKd (GRID2IP_1, A4D2P6)	also measured
SRPHTNETSL [MCC, P23508]	5.72	below the threshold	3.64	below the threshold	4.84	below the threshold	4.49	below the threshold	below the threshold	4.28	below the threshold	below the threshold	below the threshold	below the threshold	below the threshold	below the threshold	5.22	below the threshold	below the threshold	below the threshold	pKd (GRIP2_7, Q9C0E4): below the threshold; pKd (APBA1_1, Q02410): below the threshold; pKd (GRIP1_3, Q9Y3R0): below the threshold; pKd (Inadl_2, Q8NI35): below the threshold; pKd (MAGI2_4, Q86UL8): below the threshold; pKd (SCRIB_1, Q14160): 5.26; pKd (GRIP1_5, Q9Y3R0): below the threshold; pKd (DLG5_1, Q8TDM6): below the threshold
ATKDKKITTV [EXOC4, Q96A65]	4.38	below the threshold	5.52	below the threshold	4.14	below the threshold	3.55	3.54	below the threshold	3.49	3.87	3.53	below the threshold	4.64	below the threshold	below the threshold	3.82	below the threshold	3.49	below the threshold	pKd (GRIP2_7, Q9C0E4): 3.52; pKd (APBA1_1, Q02410): below the threshold; pKd (GRIP1_3, Q9Y3R0): below the threshold; pKd (Inadl_2, Q8NI35): 3.51; pKd (MAGI2_4, Q86UL8): 4.51; pKd (SCRIB_1, Q14160): 3.85; pKd (GRIP1_5, Q9Y3R0): below the threshold; pKd (DLG5_1, Q8TDM6): 3.59
FHSIKQSTAV [CRHR1, P34998]	4.91	below the threshold	5.03	below the threshold	5.21	below the threshold	below the threshold	3.85	below the threshold	4.18	3.6	below the threshold	below the threshold	below the threshold	below the threshold	below the threshold	4.1	below the threshold	below the threshold	below the threshold	pKd (GRIP2_7, Q9C0E4): below the threshold; pKd (APBA1_1, Q02410): below the threshold; pKd (GRIP1_3, Q9Y3R0): below the threshold; pKd (Inadl_2, Q8NI35): below the threshold; pKd (MAGI2_4, Q86UL8): 4.42; pKd (SCRIB_1, Q14160): 4.01; pKd (GRIP1_5, Q9Y3R0): below the threshold; pKd (DLG5_1, Q8TDM6): below the threshold
GSQSQVETEA [FKBP4, Q02790]	below the threshold	below the threshold	below the threshold	below the threshold	below the threshold	below the threshold	below the threshold	below the threshold	below the threshold	below the threshold	below the threshold	below the threshold	below the threshold	below the threshold	below the threshold	below the threshold	below the threshold	below the threshold	below the threshold	below the threshold	pKd (GRIP2_7, Q9C0E4): below the threshold; pKd (APBA1_1, Q02410): below the threshold; pKd (GRIP1_3, Q9Y3R0): below the threshold; pKd (Inadl_2, Q8NI35): below the threshold; pKd (MAGI2_4, Q86UL8): below the threshold; pKd (SCRIB_1, Q14160): below the threshold; pKd (GRIP1_5, Q9Y3R0): below the threshold; pKd (DLG5_1, Q8TDM6): below the threshold
